The record followed here is paper PMC3235118, “Juvenile Hormone (JH) Esterase of the Mosquito Culex quinquefasciatus Is Not a Target of the JH Analog Insecticide Methoprene” (PLoS ONE, 2011).

Data set [1] deals with T1, CqJHE (Culex quinquefasciatus, UniProt R4HZP1).
T1 construct: gene jhe; full-length cDNA (ORF 1746 nt) from 4th instar larvae, predicted 19-residue signal peptide removed on secretion, mature 563 residues, 63,430 Da; recombinant baculovirus AcCqJHE in High Five cells, secreted
T1 sequence (R4HZP1 20-582): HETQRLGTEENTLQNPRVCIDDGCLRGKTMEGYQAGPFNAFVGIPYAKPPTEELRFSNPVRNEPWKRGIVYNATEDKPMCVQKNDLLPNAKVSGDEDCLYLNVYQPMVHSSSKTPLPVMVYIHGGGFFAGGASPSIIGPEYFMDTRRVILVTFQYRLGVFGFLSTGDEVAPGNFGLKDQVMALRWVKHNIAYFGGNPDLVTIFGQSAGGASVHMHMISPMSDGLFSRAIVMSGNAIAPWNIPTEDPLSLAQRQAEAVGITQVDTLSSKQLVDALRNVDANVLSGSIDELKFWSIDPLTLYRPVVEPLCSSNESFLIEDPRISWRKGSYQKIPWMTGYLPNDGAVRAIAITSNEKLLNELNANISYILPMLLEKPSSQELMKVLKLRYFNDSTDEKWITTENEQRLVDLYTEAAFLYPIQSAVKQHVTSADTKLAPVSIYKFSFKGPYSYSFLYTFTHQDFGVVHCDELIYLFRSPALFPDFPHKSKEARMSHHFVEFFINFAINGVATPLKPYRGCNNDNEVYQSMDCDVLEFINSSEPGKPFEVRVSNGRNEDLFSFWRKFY
Nature of the data set: competition in JH III partition assay. Format: biochemical.

The target in data set [2] is T1, CqJHE. Briefly: JH III partition assay (radiolabelled JH III), […] min preincubation. The format is biochemical.
Substrate in data set [3]: COC(=O)/C=C(\C)CC/C=C(\C)CC[C@H]1OC1(C)C
Nature of the data set: JH III partition assay (radiolabelled JH III). The format is biochemical, Culex quinquefasciatus. Conditions: 50 mM sodium phosphate pH 7.4, 30°C. An excerpt:
JH III partition assay (radiolabelled JH III) on CqJHE

Substrate in data set [4]: CC(=O)Oc1cccc2ccccc12
Briefly: spectrophotometric, OD450. The format is biochemical, Culex quinquefasciatus. Conditions: glycine-NaOH pH 9.0, 30°C. An excerpt:
spectrophotometric, OD450 on CqJHE

Substrate in data set [5]: CC(=O)Oc1ccc([N+](=O)[O-])cc1
Briefly: spectrophotometric, OD405. Conditions: 50 mM sodium phosphate pH 7.4, 30°C. Format: biochemical, Culex quinquefasciatus. An excerpt:
spectrophotometric, OD405 on CqJHE

A word on the inhibition: it is the drop in the measured response relative to a control, in per cent. `C#CCOC(=O)/C=C(C)/C=C/CC(C)CCCC(C)C` (stereo not drawn) [kinoprene] returned an inhibition at 5 µM in data set [1] of 50%.

Consider `CCOC(=O)/C=C(C)/C=C/C[C@@H](C)CCCC(C)C` [hydroprene], for which, in data set [1], the inhibition at 5 µM was 40%.

In general, IC50 refers to the concentration at which inhibition is half-maximal. Molecule `CCCCCCCCSCC(=O)C(F)(F)F` [OTFP, 3-octylthio-1,1,1-trifluoropropan-2-one] yielded an IC50 in data set [2] of 0.23 ± 0.05 nM.

B1: CqJHE (Culex quinquefasciatus) (protein)
chain: HETQRLGTEENTLQNPRVCIDDGCLRGKTMEGYQAGPFNAFVGIPYAKPPTEELRFSNPVRNEPWKRGIVYNATEDKPMCVQKNDLLPNAKVSGDEDCLYLNVYQPMVHSSSKTPLPVMVYIHGGGFFAGGASPSIIGPEYFMDTRRVILVTFQYRLGVFGFLSTGDEVAPGNFGLKDQVMALRWVKHNIAYFGGNPDLVTIFGQSAGGASVHMHMISPMSDGLFSRAIVMSGNAIAPWNIPTEDPLSLAQRQAEAVGITQVDTLSSKQLVDALRNVDANVLSGSIDELKFWSIDPLTLYRPVVEPLCSSNESFLIEDPRISWRKGSYQKIPWMTGYLPNDGAVRAIAITSNEKLLNELNANISYILPMLLEKPSSQELMKVLKLRYFNDSTDEKWITTENEQRLVDLYTEAAFLYPIQSAVKQHVTSADTKLAPVSIYKFSFKGPYSYSFLYTFTHQDFGVVHCDELIYLFRSPALFPDFPHKSKEARMSHHFVEFFINFAINGVATPLKPYRGCNNDNEVYQSMDCDVLEFINSSEPGKPFEVRVSNGRNEDLFSFWRKFY
notes: full-length cDNA (ORF 1746 nt) from 4th instar larvae, predicted 19-residue signal peptide removed on secretion, mature 563 residues, 63,430 Da; recombinant baculovirus AcCqJHE in High Five cells, secreted
The Km is the concentration of substrate that gives half-maximal velocity. One may read the Vmax as the top rate of the reaction or transport when substrate is in excess. In general, kcat refers to the number of substrate molecules converted per active site and unit of time at saturation. The kcat/Km is the turnover number divided by the Michaelis constant. Consider B1, for which, in data set [3], the Km stood at 0.13 ± 0.02 µM, the Vmax was 1.2 µmol/min/mg, the kcat was 1.3 s⁻¹ and the kcat/Km was 1e+07 M⁻¹ s⁻¹. In addition, in data set [4], the Km came to 2960 ± 420 µM, the Vmax worked out at 20 µmol/min/mg, the kcat is 21 s⁻¹ and the kcat/Km was 7100 M⁻¹ s⁻¹. Further, in data set [5], the Michaelis-Menten constant (Km) was found to be 340 ± 17 µM, the Vmax is 120 µmol/min/mg, the kcat came to 130 s⁻¹ and the kcat/Km is 380000 M⁻¹ s⁻¹.
